# What was measured:
# [1] = Clinical trial: plasma Trp/LNAA ratio kinetics after a single drink; type: in vivo, humans
# Protocol: (§1) Lysozyme is rich in Trp. […] A product data sheet is attached as FIG. 6. Study Procedures
# (§2) Washout periods between treatments were at least three days. […] The study was composed of four visits.
# (§3) They then ingested one of the experimental drinks.
# (§4) Fluorescence-based detection is employed.
# (§5) • For Trp and LNAA determination in the blood: Approx. […] After mixing, 2 μl was injected on the column. Statistical Considerations Descriptive Statistics
# Plasma samples from each time point have been analysed for levels of Trp and LNAA, i.e. the sum of Val, Ile, Leu, Tyr, and Phe. The resulting Trp/LNAA ratio was plotted against time post consumption of the intervention product.
# [2] = human, in vivo
# Protocol: as §1, §2, §3, §4, §5
substance,measurement,setting,value
intact lysozyme: A hen egg-derived protein rich in Trp; naturally occurring food protein that has not been altered,Shape of the plasma Trp/LNAA ratio increase over time (in words),"[1]; FIG. 2, comparison of the three treatments",much slower increase
same,"dAUC (baseline-corrected AUC of Trp/LNAA ratios), mean","[1]; plasma, 0-240 min after single drink, healthy volunteers, baseline AUC subtracted",7.3
same,Cysteine AUC (average),[2],999.7
same,Cystine AUC (average),[2],10726.7
same,Glutathione AUC (average),[2],255.7
